# Data taken from a protein production outcome set (Wang et al. 2014).
# Experiment: label from the status in PepcDB records
# 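Further: failed if final PepcDB status was selected cloned or expressed and not failed if soluble or beyond.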
row,Sequence,protein production
1,MQFFDGYHYHGTTFEQSYRCYPASFIDKPQLESGDKIIMPPSALDRLASLHIDYPMLFELRNAGIERVTHCGVLEFIAEEGMIYMPYWMMQNLLLQEGDIVRVRNVTLPKGTYVKLQPHTTDFLDISNPKAILETALRNYSCLTSGDSIMVPYNNKKYFIDIVETKPANAISIIETDCEVDFAPPLDYKEPERPTAPSAAKGPAKAEEVVDEPEPKFNPFTGSGRRLDGRPLAYEPAPASSSKGKQPVVANGNGQSSVASSSEKATRAQGKLVFGANGNRAPKEAAPKVGAAKETKKEEQEKKDEPKFQAFSGKKYSLRG,not failed
2,MTTDKQTSINLALSTINGKWKLSLMDELFQGTKRNGELMRALDGITQRVLTDRLREMEKDGLVHRESFNELPPRVEYTLTPEGYALYDALSSLCHWGETFAQKKARLNK,not failed
3,MTQHITRMRREIDEIPEAVQRLLDHGAQDVARVAAVLRLRDPSFVATVARGSSDHVCTYLSYAAELLLGLPVASLGPSVASVYDARLRLDRALCLAVSQSGKSPDIVAMTRNAGRDGALCVALTNDAASPLAGVSAHTIDIHAGPELSVAATKTFVTSAVAGLMLLADWAEDDGLRAALGNLPETLAAASRIDWPEMRVAIGARPSLFTLGRGTSLAVSNEAALKFKETCQLHAESYSSAEVLHGPVSIVEEGFPVLGFAAGDAAEAPLAEIADQIAAKGATVFATTGRVTRARVLEHVRSGHALTDPLSLIVSFYSMVEAFASERGIDPDAPRHLNKVTETV,not failed
4,MNLPMTMSLQTVSFEEFITTIAAALGCGLLVGLERERSKLKHEYKTFAGFRSFAISSLLGAICFLFGTAIGIVGALLIGAISIVSLKNQPNDPGVTTELAFIMTYFIGALCIWNISLAAGLAVIMTIILLAKQSMHGIASQWITESELRDGIFLLALLLIALPLVPNKPFWGPVLNPHVILKLLTLILFVQALAHIAKRLLSSKNALLLSSLASGFVSSTATIASLGLEVRSGRANAKTNAGAALMSCVSTLVQTLIIVVGISLAWFKLIIFPTLIALAFLAVWAFILLRKAEPSTTSPELDSRMFSLKEAVIIAGTLTLIQAGVYGLSLYLGNAGLIAGTLLASLFEIHAAIAAVIVQGEPNNSQTSLLIAFMGGFAVHAIAKSINSAISGGLHYALAFIPAQILHMTIFIGLLWMNIHWF,failed
5,MELAAILFSMFFAMNIGASGAAASMGIAYGSEAVKKKFHALLICAAGVLSGAVIGGGNVVKTISSGIIPERVISLEIVCIIIGSAALSLFIANVLGIPLSTSEVTVGSVVGVGVAYQVLYVKSLLVIVSFWVIVPIVAFAFTFAMAKIMKKTIKRPASGKKAKVLAVILLITGFFEAFSAGMNNVANAVGPLVAAHVLTVGEGTLYGGLFVALGALLLGRRVLETNGKKITRFSKGEGIILSGTGAGLVITSSIFGLPVPLAQVTSSSIIGMGMAKNGGNVFHKQVVKTMLKVWVVSPFLSLSLSYMLVSLLLKGDYYALIVVTSVLLASVGTISLMRAVKKEHSSVHEQGGGI,failed
6,MSASAVHSLWTTAADPISKIDAPKIEYGQLSPTLIVIGAALVGVLVEAFVPRKSRYYAQVFVSVVALAAAFAAVVALAAGGYGTTKAHIAAMGAIAVDGPALFLQGTILLAGLLGVFTFAERRLDPEVHGNRVDSFAAQAASVPGSDSEKAAVKAGFTTTEVFPLLLFAVGGMLIFPSANDLLTLFVALEVFSLPLYLLCAVARRKRLMSQEAAVKYFLLGAFASAFTLFGIALLYGYAGSMSYATIAQVVDGTVQNVDPALAGTMGNDALLLVGAAMLVMGLLFKVGAVPFHMWTPDVYQGAPTPVTGFMAAATKVAAFGALLRLLYVVLPGLRWDWRPVMWAVAIVTMLGGAIVAITQTDIKRLLAYSSIAHAGFILAGVIATTPDGVSSVLFYLGAYSFVTIGAFAVVTLVRDAGGEATHLSKWAGLGRRSPLVAAVFAVFLLAFAGIPLTSGFAGKFAVFKAAAEGGAAPLVVVGVISSAIAAFFYIRVIVLMFFSEPRPEGPTVAVPSPLTTTVIGVGVVVTLVLGVAPQYFLDLAG,failed
7,AALVRQHLDALPAASVPDLPAMARLLCTSVRTLKRRLQEEGTCYRQVLAGHRGARALELLGNPRLSLSQVAERLGFSDLSSFSQSFKRWFGVAPSVYRQERCG,failed
8,SYDYQSAFDIIGPVMMGPSSSHTAGAVKIGNSARAVLGDMPKHIEIRYYESFAKTHQGHGTDVAIVGGAMGYSTFDSRIKSSLDIAKDENITIDIIEDEGESIGQHPNCAYIKANTKDGRYIEVIGISIGGGTIKLKGINVNGLNVELNHG,failed
9,MTISIDRPAPVSSWRTYRRLLAFAKPYRLLLVAALIAALIEAAGTTGFLALMKPITDETFIYKNAEVSRWLPVQIILLFVVRGVAGYITDMAMGKSARSIARDLRIKVMAKYLRLPGSRFDSEPVPSMLIRLGSDSDQVAQAAVDAVKVMIQQSLQVIGALALMLWHSWQVTLTILVLAPVLAWVMDKVARRYRRISHSIQESGAQLLQAADQTLSSHQEVKIYGAQQTEMERYGALANRNLRLAMKVESTRGISTATVQMIGAIGLSALLFVAGAQALAGRLTAGDFVVLMTSMLTIIPGLKQLTNVQNMVQRGLASAERLFSVLDSPDEPDQGTVPLTRAKGLIEFRDVTARYPGQVNPALADVSFVAQPGTVTAIVGRSGSGKSSLIKLIPRFYEAEAGQILLDGHPVQAYALADLRRQIALVGQQVMLFDGSIADNVAFGEMRNADAGKLERAILGANAMEFVAQLPEGLQSHVGTKGGRLSGGQRQRLAIARAMLKDAPVLILDEATAALDNESERLVQDALHKLMPDRTTLVIAHRLSTIEHADQVLVMDQGRIVERGTHHQLLAQGGLYSHLHGMQFRERQA,failed
10,MKTTIAAALQQYFLNDNTACYVLTGDNYPHRIPMRNDEERLNVYNESGEDGLRGYLGTPKEIDFDRINKELSEFKAGKDIIEIKHMGREDGDISYDETDFTGIKVLILEWTHGGSEYLKGVDIPVFLESSPEETKARRIKRGRDENAASPFICRVVELEQEKLDLQGKNARIVVGKDGKVYEQLEHHHHHH,failed
11,MGVALLLLVGGAELLVRSALRLAQRLHVRPLIIGLSLVAFGSTAPQLTVSLQAAYQGAPDVAVGSVIGSNIFNVLVILGLAALIIPLRVSRQLVRLDIPLMILASGLVYALSANAHLGRVEGALLLLGLAGYLAMLWHQSRHYARTYPAPDAARSGAGRFWSGTLLQILVGLGLLSLAGHLLLEAAIEVATDLGLSERIIGLTVVAICTSLPELAAALIAALRGEREIAVGTVIGSNLFNLLAVLGLTALITPEPLSISPNALSFDLPVMLGVAALSLPVFYSGYRITRAEGLVFLCLYLAYGLHVAAFTMGMPLAGRLERLMLFYVLPVLATVLLYTTVRAWRRQH,failed
12,NQPKRALRYNKRFMGDRRYMSFWSWLTTGNFVNKEFSYYKVPMELDVFDQDAFAESGVPFYVVATDIKTGKPDYIKIDHVFEQMEALRASSALPLVSEIVEYKGKRYMDGGLADSLPI,failed
13,MVMEYELRTPLVKDQILKLKVGDVVYITGEIFTARDEAHARALEWMEEGKELPFSFDKGVVYHCGPLVKKNDEWRVVSAGPTTSARMNPFTPKILEKVECMGIIGKGGMSEEVVEAMRGKAAYFAFTGGAGALAAMSIKKVKGVVWEDLGMPEAVWLLEVERFGPCIVAIDAHGNSLYRR,not failed
14,LLADGQLQDWHDSTVYEIYHHWRHRYPKGVFENREHLFSAEIPRDTPIALQPEEHVSYGWFDMEEAAEKVFSPSNRRAILELGRFLGKR,failed
15,NFNPPTRRNWESNYFGMPLQDLVTAEKPIPLFVEKCVEFIEDTGLCTERLYRVSGNKTDQENIQKQFVQDHNINLVSMEVTVNAVAGALKAFFADLPDPLIPYSLHPELLEAAKIPDKTERLHALKEIVKKFHPVNYDVFRYVITHLNRVSQQHKINLMTADNLSICFGQPLMRPDLKSMEFLSTTKIHQSVVETFIQQCQFFFYNGEIVETTNIVAPPPPSNPG,failed
16,PPEAYSLDTAIFVLETRDYRLSDVKEIDSYGDVEMKGKVAVFETEYGPVFLYVYKGEEAKKIWKKLNGRAGFVSIRSVLDLPNMGKFSTVSNGKKIVAWWRKNWLFIVEGKNGVEEFVKHVYRVYEEMKQ,not failed
17,MHLETNMAGHSIPHFQNDGGHSVIEIGVKEFMCTGASVPFDHPHIFIDMGDDNEKVCSYCSTLYRYNPSLKAEQTNPPGCVFHVKAALEHHHHHH,not failed
18,MKRTLYSGVGLLLVGLLFLAFNLLSSLLLRDQQFDLTQQKLYTFSAGTQEVLDSLDEPLNLYLFFSKSRASDLPALRNYARRVEEVLDLYARRSHGNVRLFVIDPLPFSDDEDRAARFGLQAPPIGPNGEAIYFGLAATNPTDGLQVIPFFSPEEEPLLEYDLSRLVQALAQRERTVVGLMSSLPMTGQAPTDGQPGSRPWAMMDKLYQQFDIRTLGLASTEIPAEVSVLMLVHPRQLSEQTQYAIDQFVLRGGKLLAFVDPLSLADADGGKSSDLAPLLRSWGVQLRPDTLLADASFAMIKPNAERRPERNPTWLHLPGDTFPHDNVLTTGLESLNLASVGLLEPLGGASTRFIPLLHSSAHSMPLSLERFRQSSTEQLNATLVPTGERYVLAAKVEGPATSAFPADRGKQGEGLSDSANIHVLLVADTDLLSNPLWLQEQPGHNEPQVWADNDLFVGNALDYLSGSDALIDLRSRGHTKRPFTRVEALRREAGLRAQEQLNALQQSLNDTDRNLRTLQQSMDAGDQEVTPEMEATLRRFIDDKLRIRQQLRQLQFQLNADVERLGEQVKLANTVLLPALLTLFLLLHWSWRSMRRRRG,failed
19,MMVETATVVQYQNGKALVRCSVKTACGNCGAKADCGTQLLSSLVKERVPHFELSVNMPLVAGDMVKIGLPEQTLLWSIFWIYVVPLMVLIGSAVGFTQLFANELVVVFMMFICTSMTFFSIKKIIDKKQLSQLNPIFLGRVE,failed
20,MAKGPLVSFQALVENARDLVYVLDAGGAIRYASPNVRQVLGYDPEGHTRETLYALDFVHPEDRTYAEAALEDLLRHPGKTREFRLRLLDAWGRVRAVRVWGRNLLEDPAVRGIIINVHDETELEAERA,failed
21,TVDRSVAIVGTRAMSHYGKSATSMLAAGIADHHWTIVSGGALGVDTVAHTEALQRQKPTVAVCARGLDAPYPRKNAELLRSIVETGCLVSEYAPGLTPHRHRFLTRNRLVAALSQGTVVVEAAWRSGALNTLSWASALGRVAMAVPGPVTNTGSLGCHERIRNKEAELVCSAEEILALVGTLGEFDPN,failed
22,MGSAERFQRLLGDRYELRGVLGRGGMAEVRDGWDTRLARPVAIKLLYPALAADADLRARFEREARAAAALTHPHVVAVHDCGEHAGTPYIVMERLSGATLADEIAAGPLPQERVAELLDQILSALIAAHAAGIVHRDIKPGNILIGHTGQAKLADFGIAKTDGVPHTQAGQILGTMAYLSPQRVTGQPAGFADDLYAVGVVGYEALTGRRPFDRDNPAAMVRAILDDVPVPIASVRSDVAPGLIHVIDMAMAREVAFRYPDAATMRAALTGAEPPTQRVGRRQTKVLAAPLPPIPPPPVLPSPRHWRTRLILAVLGIVSTLILVLVLALARGSSGLTSPTSTPTATTVPPATSAVVPPPVPSTPVPAAVPEEPRGPGRGPGPGPGPGKGKGHEKGHGPKGPKGPPHP,failed
23,MKKRNISVPSKAYLALIIATLCWGGNTVAGKLAVGHISPMAFTFLRWVLAVAIIFAISVPQLIKDWPVVKQRLPYFFVLGSVGYTAFNVFLYTALQHTSAINAAVIQAGIPMVIFVLNFVLFRTRVLFGQIAGFCLTISGVALLASHGDPLSLLQLEMNVGDAVMLLAVLVYAIYTVILRWKPAVDWRTLMAIPAFFALLTSVPLVFFEMSRESLIWPDQKGWMLVVYAGIFASLIAQILYIKGVEQIGANRAGLFINLVPVFGTLLSVFVLSETLHTYQIAALFMALAGIAVAERKKSPAS,failed
